Drawing on the supplement of paper PMC9233669, this text covers self-aminoacylation for 25 sequences.

Variants at the floor of the assay were thinned out.

In one data set the test system is biotinyl-Phe-oxazolone. Put plainly: self-aminoacylation, catalytic enhancement (BFO) (fold over background); higher = more active; k-Seq, kA / k0A0; sequences stand for … in GGGAAUGGAUCCACAUCUACGAAUUC…UUCACUGCAGACUUGACGAAGCUG
The procedure, abridged: (§1)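 Mutagenized RNA pools (0.43 μM; 21-nt variable region) were treated with 2–1250 μM of each biotinyl-aminoacyl-oxazolone. Conditions were 50 μL HEPES/NaCl/KCl/MgCl2/CaCl2 buffer, 5% acetonitrile, pH 6.9–7.0, room temperature, 90 minutes. Catalytic enhancement, the median kA relative to the uncatalyzed rate, was derived from streptavidin capture, qPCR and Illumina sequencing.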

In a further data set the test system is biotinyl-Ile-oxazolone. Put plainly: self-aminoacylation, catalytic enhancement (BIO) (fold over background); higher = more active; k-Seq, kA / k0A0; sequences stand for … in GGGAAUGGAUCCACAUCUACGAAUUC…UUCACUGCAGACUUGACGAAGCUG
The procedure, abridged:
as §1

Another data set relates to biotinyl-Met-oxazolone. Briefly: self-aminoacylation, catalytic enhancement (BMO) (fold over background); higher = more active; k-Seq, kA / k0A0; sequences stand for … in GGGAAUGGAUCCACAUCUACGAAUUC…UUCACUGCAGACUUGACGAAGCUG
The procedure, abridged: as §1

The subject of the next data set is biotinyl-Val-oxazolone. Briefly: self-aminoacylation, catalytic enhancement (BVO) (fold over background); higher = more active; k-Seq, kA / k0A0; sequences stand for … in GGGAAUGGAUCCACAUCUACGAAUUC…UUCACUGCAGACUUGACGAAGCUG
In outline:
as §1

For another data set, the system named is biotinyl-Leu-oxazolone. Put plainly: self-aminoacylation, catalytic enhancement (BLO) (fold over background); higher = more active; k-Seq, kA / k0A0; sequences stand for … in GGGAAUGGAUCCACAUCUACGAAUUC…UUCACUGCAGACUUGACGAAGCUG
The procedure, abridged: as §1

Another data set relates to biotinyl-Trp-oxazolone. Briefly: self-aminoacylation, catalytic enhancement (BWO) (fold over background); higher = more active; k-Seq, kA / k0A0; sequences stand for … in GGGAAUGGAUCCACAUCUACGAAUUC…UUCACUGCAGACUUGACGAAGCUG
The procedure, abridged:
as §1

On to “CUACUUCGGACAAUCGGUCUG [Fam1A.1 aminoacylation ribozyme variant]”, for which the self-aminoacylation in the data set on biotinyl-Phe-oxazolone amounted to 0.631; with biotinyl-Ile-oxazolone it was 0.815; with biotinyl-Met-oxazolone, 0.928; in the data set with biotinyl-Val-oxazolone, 0.923; in the data set on biotinyl-Leu-oxazolone, 0.867; in the data set with biotinyl-Trp-oxazolone it was 0.75.
For the sequence “AUUAACCUAGGUCAUCGCGUG [Fam2.2 aminoacylation ribozyme variant]”, the self-aminoacylation with biotinyl-Phe-oxazolone was 59.2; in the data set on biotinyl-Ile-oxazolone, 4.57; in the data set on biotinyl-Met-oxazolone it was 6.95; in the data set on biotinyl-Val-oxazolone it was 4.66; with biotinyl-Leu-oxazolone, 10.2; in the data set on biotinyl-Trp-oxazolone, 7.14.
As to “AUCCACAUAGGUCAUCGGGUG [Fam2.2 aminoacylation ribozyme variant]”, the self-aminoacylation with biotinyl-Phe-oxazolone is 78.8; with biotinyl-Ile-oxazolone, 5.82; in the data set on biotinyl-Met-oxazolone it was 10.1; in the data set with biotinyl-Val-oxazolone it was 6.77; with biotinyl-Leu-oxazolone, 12.1; with biotinyl-Trp-oxazolone it was 8.91.
On to “AAGUUUGCUAAUCGUUGCAAG [Fam3.1 aminoacylation ribozyme variant]”, for which the self-aminoacylation in the data set with biotinyl-Phe-oxazolone worked out at 1.13; in the data set with biotinyl-Ile-oxazolone, 0.834; in the data set with biotinyl-Met-oxazolone, 0.824; with biotinyl-Val-oxazolone it was 0.881; in the data set with biotinyl-Leu-oxazolone it was 0.77; in the data set with biotinyl-Trp-oxazolone, 0.987.
As to “CUACUUCAGACAAUCCGUCUG [Fam1A.1 aminoacylation ribozyme variant]”, the self-aminoacylation in the data set on biotinyl-Phe-oxazolone is 1.86; with biotinyl-Ile-oxazolone it was 0.902; with biotinyl-Met-oxazolone, 0.675; in the data set with biotinyl-Val-oxazolone it was 0.826; with biotinyl-Leu-oxazolone, 0.963; with biotinyl-Trp-oxazolone, 1.23.
“AUUCACCUAGGUCAUCUGCUG [Fam2.2 aminoacylation ribozyme variant]”: the self-aminoacylation with biotinyl-Phe-oxazolone is 2.81; in the data set with biotinyl-Ile-oxazolone, 0.819; with biotinyl-Met-oxazolone, 0.724; in the data set with biotinyl-Val-oxazolone, 0.81; in the data set on biotinyl-Leu-oxazolone, 0.964; with biotinyl-Trp-oxazolone it was 0.391.
Turning to “AUACACCUAGGUCAUCGGGGG [Fam2.2 aminoacylation ribozyme variant]”, the self-aminoacylation is 4.96 in the data set on biotinyl-Phe-oxazolone; 1.85 in the data set with biotinyl-Ile-oxazolone; 1.29 in the data set with biotinyl-Met-oxazolone; 1.73 in the data set with biotinyl-Val-oxazolone; 1.39 with biotinyl-Leu-oxazolone; 1.22 in the data set with biotinyl-Trp-oxazolone.
“CUACAUCAAACAAUCGGUCCG [Fam1A.1 aminoacylation ribozyme variant]”: the self-aminoacylation was 0.932 in the data set with biotinyl-Phe-oxazolone; 0.838 in the data set with biotinyl-Ile-oxazolone; 1.1 in the data set on biotinyl-Met-oxazolone; 0.872 in the data set on biotinyl-Val-oxazolone; 0.805 in the data set with biotinyl-Leu-oxazolone; 0.83 in the data set on biotinyl-Trp-oxazolone.
On to “AAGUUUGCUAAUAGUCCCACG [Fam3.1 aminoacylation ribozyme variant]”, for which the self-aminoacylation in the data set with biotinyl-Phe-oxazolone was determined as 0.69; with biotinyl-Ile-oxazolone it was 0.727; with biotinyl-Met-oxazolone, 0.931; in the data set with biotinyl-Val-oxazolone, 0.679; in the data set with biotinyl-Leu-oxazolone it was 0.838; with biotinyl-Trp-oxazolone, 0.714.
Regarding “AAGUUUGCUGAUAAUCGCAAG [Fam3.1 aminoacylation ribozyme variant]”, the self-aminoacylation in the data set on biotinyl-Phe-oxazolone amounted to 1.05; in the data set with biotinyl-Ile-oxazolone, 0.707; in the data set on biotinyl-Met-oxazolone, 0.716; with biotinyl-Val-oxazolone it was 0.754; in the data set with biotinyl-Leu-oxazolone, 0.586; with biotinyl-Trp-oxazolone, 0.682.
“AUGCACCUAGGCCAUCGGGUG [Fam2.2 aminoacylation ribozyme variant]”: the self-aminoacylation with biotinyl-Phe-oxazolone was determined as 27.6; with biotinyl-Ile-oxazolone it was 3.32; in the data set on biotinyl-Met-oxazolone it was 3.87; in the data set on biotinyl-Val-oxazolone, 3.41; in the data set on biotinyl-Leu-oxazolone it was 4.53; with biotinyl-Trp-oxazolone, 4.46.
For “CUGCUUCAAACAAUCAGUCUG [Fam1A.1 aminoacylation ribozyme variant]”, the self-aminoacylation came out at 40.5 in the data set with biotinyl-Phe-oxazolone; 0.738 with biotinyl-Ile-oxazolone; 0.723 with biotinyl-Met-oxazolone; 0.77 in the data set with biotinyl-Val-oxazolone; 1.21 in the data set on biotinyl-Leu-oxazolone; 12.5 in the data set with biotinyl-Trp-oxazolone.
As to “AAGUUUGCUAAUAGUCGCAAU [Fam3.1 aminoacylation ribozyme variant]”, the self-aminoacylation with biotinyl-Phe-oxazolone was found to be 1.68; in the data set with biotinyl-Ile-oxazolone, 1.42; in the data set with biotinyl-Met-oxazolone, 1.25; in the data set on biotinyl-Val-oxazolone, 1.26; in the data set on biotinyl-Leu-oxazolone, 1.19; with biotinyl-Trp-oxazolone it was 1.22.
With “CUACUACAAACAAUCGGUCUU [Fam1A.1 aminoacylation ribozyme variant]”, the self-aminoacylation with biotinyl-Phe-oxazolone stood at 0.658; with biotinyl-Ile-oxazolone, 0.533; in the data set on biotinyl-Met-oxazolone it was 0.565; with biotinyl-Val-oxazolone, 0.675; in the data set on biotinyl-Leu-oxazolone, 0.515; with biotinyl-Trp-oxazolone, 0.511.
For the sequence “AUUAACCUAGGUCAACGGGUG [Fam2.2 aminoacylation ribozyme variant]”, the self-aminoacylation in the data set with biotinyl-Phe-oxazolone is 20.5; in the data set with biotinyl-Ile-oxazolone it was 2.13; in the data set with biotinyl-Met-oxazolone, 3.36; in the data set with biotinyl-Val-oxazolone, 1.89; in the data set with biotinyl-Leu-oxazolone, 3.59; in the data set with biotinyl-Trp-oxazolone it was 3.
For “UAGUUAGCUAAUAGUCGCAAG [Fam3.1 aminoacylation ribozyme variant]”, the self-aminoacylation was determined as 2.37 with biotinyl-Phe-oxazolone; 1.72 in the data set on biotinyl-Ile-oxazolone; 2.06 in the data set with biotinyl-Met-oxazolone; 1.52 in the data set with biotinyl-Val-oxazolone; 1.8 in the data set on biotinyl-Leu-oxazolone; 1.11 in the data set with biotinyl-Trp-oxazolone.
“AUUACCCUGGUCAUCGUAUGA [Fam2.1 aminoacylation ribozyme variant]”: the self-aminoacylation amounted to 0.633 with biotinyl-Phe-oxazolone; 0.789 in the data set with biotinyl-Ile-oxazolone; 0.984 in the data set with biotinyl-Met-oxazolone; 1.02 in the data set on biotinyl-Val-oxazolone; 0.814 in the data set with biotinyl-Leu-oxazolone; 0.855 in the data set on biotinyl-Trp-oxazolone.
As for “GUUCACCUCGGUCAUCGGGUG [Fam2.2 aminoacylation ribozyme variant]”, the self-aminoacylation with biotinyl-Phe-oxazolone is 28.6; in the data set on biotinyl-Ile-oxazolone, 3.61; in the data set on biotinyl-Met-oxazolone, 4.1; with biotinyl-Val-oxazolone, 4.29; in the data set on biotinyl-Leu-oxazolone, 4.52; with biotinyl-Trp-oxazolone it was 3.77.
For the sequence “AUUACCCUGAUCAACGAGUGA [Fam2.1 aminoacylation ribozyme variant]”, the self-aminoacylation in the data set with biotinyl-Phe-oxazolone amounted to 66.4; in the data set with biotinyl-Ile-oxazolone it was 6.3; in the data set with biotinyl-Met-oxazolone, 14.6; in the data set with biotinyl-Val-oxazolone, 6.16; in the data set with biotinyl-Leu-oxazolone it was 15; in the data set on biotinyl-Trp-oxazolone, 18.5.
Turning to “GCACACUUCAAGGAAUCGGUC [Fam1B.1 aminoacylation ribozyme variant]”, the self-aminoacylation came to 3.95 with biotinyl-Phe-oxazolone; 1.67 with biotinyl-Ile-oxazolone; 1.55 in the data set with biotinyl-Met-oxazolone; 1.22 in the data set with biotinyl-Val-oxazolone; 1.61 with biotinyl-Leu-oxazolone; 4.35 in the data set on biotinyl-Trp-oxazolone.
In the case of “CUUCACUUCAAGCAAUCGGUC [Fam1B.1 aminoacylation ribozyme variant]”, the self-aminoacylation with biotinyl-Phe-oxazolone worked out at 46.4; in the data set with biotinyl-Ile-oxazolone it was 1.05; in the data set with biotinyl-Met-oxazolone, 1.16; in the data set on biotinyl-Val-oxazolone, 1.15; in the data set on biotinyl-Leu-oxazolone, 1.55; with biotinyl-Trp-oxazolone, 20.9.
Regarding “CCGCACUCCAAGCAAUCGGUC [Fam1B.1 aminoacylation ribozyme variant]”, the self-aminoacylation in the data set on biotinyl-Phe-oxazolone is 6.39; in the data set with biotinyl-Ile-oxazolone, 1.14; in the data set on biotinyl-Met-oxazolone, 0.991; with biotinyl-Val-oxazolone, 1.7; in the data set on biotinyl-Leu-oxazolone, 0.931; in the data set on biotinyl-Trp-oxazolone it was 5.87.
For the sequence “AACUUUGCUAAUCGUCGCAAG [Fam3.1 aminoacylation ribozyme variant]”, the self-aminoacylation was determined as 9.09 with biotinyl-Phe-oxazolone; 1.93 in the data set with biotinyl-Ile-oxazolone; 2.21 in the data set with biotinyl-Met-oxazolone; 1.89 with biotinyl-Val-oxazolone; 2.66 with biotinyl-Leu-oxazolone; 2.15 with biotinyl-Trp-oxazolone.
Take “CUACUUCAAACCAUCGGUCCG [Fam1A.1 aminoacylation ribozyme variant]”: the self-aminoacylation in the data set with biotinyl-Phe-oxazolone amounted to 0.607; in the data set on biotinyl-Ile-oxazolone, 0.761; in the data set on biotinyl-Met-oxazolone it was 0.868; in the data set on biotinyl-Val-oxazolone, 0.922; in the data set with biotinyl-Leu-oxazolone it was 0.996; in the data set with biotinyl-Trp-oxazolone, 0.99.
For the sequence “AACUUUGCUUAUAGUCGCAAG [Fam3.1 aminoacylation ribozyme variant]”, the self-aminoacylation is 3.75 in the data set on biotinyl-Phe-oxazolone; 2.58 with biotinyl-Ile-oxazolone; 3.18 with biotinyl-Met-oxazolone; 2.2 in the data set with biotinyl-Val-oxazolone; 2.98 in the data set on biotinyl-Leu-oxazolone; 2.98 in the data set on biotinyl-Trp-oxazolone.
